T1: EYA4 1-365 (UniProt O95677 1-365)
T1 sequence: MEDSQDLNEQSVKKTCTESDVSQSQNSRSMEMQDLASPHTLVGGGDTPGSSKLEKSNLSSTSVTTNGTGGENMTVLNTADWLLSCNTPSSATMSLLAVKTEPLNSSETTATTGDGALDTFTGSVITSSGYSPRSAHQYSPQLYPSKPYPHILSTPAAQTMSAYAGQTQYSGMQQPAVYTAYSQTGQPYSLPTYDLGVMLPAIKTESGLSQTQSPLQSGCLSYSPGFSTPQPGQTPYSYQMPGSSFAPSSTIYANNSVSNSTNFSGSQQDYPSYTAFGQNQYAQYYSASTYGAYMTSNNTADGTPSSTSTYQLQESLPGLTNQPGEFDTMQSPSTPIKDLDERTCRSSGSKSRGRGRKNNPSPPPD

T2: EYA4 358-639 (UniProt O95677 358-639)
T2 sequence: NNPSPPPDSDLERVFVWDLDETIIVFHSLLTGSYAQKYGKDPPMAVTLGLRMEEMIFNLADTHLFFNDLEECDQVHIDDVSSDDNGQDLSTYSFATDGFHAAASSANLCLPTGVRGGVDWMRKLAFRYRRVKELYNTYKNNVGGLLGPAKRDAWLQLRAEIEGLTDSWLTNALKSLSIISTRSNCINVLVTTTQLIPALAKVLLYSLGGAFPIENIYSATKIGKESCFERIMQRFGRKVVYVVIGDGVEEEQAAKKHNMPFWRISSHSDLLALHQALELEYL


How the values were obtained:
[1] = biological target: RAD51 WT (UniProt Q06609 1-339); assay: negative-stain EM
[2] = biological target: RAD51 T309A (UniProt Q06609 1-339, T309A); assay: negative-stain EM
[3] = biological target: T3, RAD51 Y54F/Y315F (UniProt Q06609 1-339, Y54F;Y315F); assay: negative-stain EM
[4] = biological target: T1, EYA4 1-365; assay: MST
[5] = biological target: T2, EYA4 358-639; assay: EMSA
[6] = biological target: T3, RAD51 Y54F/Y315F; assay: MST
[7] = biological target: T3, RAD51 Y54F/Y315F; assay: MST; remark: listed apart in the source

T3 sequence (Q06609 whole entry Y54F/Y315F): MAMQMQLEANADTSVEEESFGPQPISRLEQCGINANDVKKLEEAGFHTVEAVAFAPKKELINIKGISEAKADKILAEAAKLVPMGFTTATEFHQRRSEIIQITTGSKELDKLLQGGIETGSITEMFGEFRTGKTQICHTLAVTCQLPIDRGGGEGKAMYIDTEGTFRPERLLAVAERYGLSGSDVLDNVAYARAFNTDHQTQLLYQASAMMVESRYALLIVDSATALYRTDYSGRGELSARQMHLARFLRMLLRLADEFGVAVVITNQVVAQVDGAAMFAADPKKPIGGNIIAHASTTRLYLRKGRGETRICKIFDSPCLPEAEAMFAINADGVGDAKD
Sequence of RAD51 WT (Q06609 whole entry): as the sequence (Q06609 whole entry Y54F/Y315F) above, with F54Y, F315Y counted along it
Sequence of RAD51 T309A (Q06609 whole entry T309A): as the sequence (Q06609 whole entry Y54F/Y315F) above, with F54Y, T309A, F315Y counted along it

| Binder | binding result [1] | binding result [2] | binding result [3] | Kd [4] [nM] | binding result [5] | binding result [6] | binding result [7] |
| --- | --- | --- | --- | --- | --- | --- | --- |
| 83(dT) (ssDNA) DNA: TTTTTTTTTTTTTTTTTTTTTTTTTTTTTTTTTTTTTTTTTTTTTTTTTTTTTTTTTTTTTTTTTTTTTTTTTTTTTTTTTTT | binds | binds | binds | – | – | – | – |
| Cy5-P1 ssDNA (ssDNA) DNA: TTATATCCTTTACTTTGAATTCTATGTTTAACCTTTTACTTATTTTGTATTAGCCGGATCCTTATTTCAATTATGTTCAT | – | – | – | 303 | no binding | binds | – |
| Cy5-P1/P2 dsDNA (dsDNA) DNA 1: TTATATCCTTTACTTTGAATTCTATGTTTAACCTTTTACTTATTTTGTATTAGCCGGATCCTTATTTCAATTATGTTCAT DNA 2: ATGAACATAATTGAAATAAGGATCCGGCTAATACAAAATAAGTAAAAGGTTAAACATAGAATTCAAAGTAAAGGATATAA | – | – | – | 732 | no binding | – | binds |

Source: paper PMC10853800
